Laboratory results from patent US20260132180.

MMP-2 protease, sequence (P08253 110-660): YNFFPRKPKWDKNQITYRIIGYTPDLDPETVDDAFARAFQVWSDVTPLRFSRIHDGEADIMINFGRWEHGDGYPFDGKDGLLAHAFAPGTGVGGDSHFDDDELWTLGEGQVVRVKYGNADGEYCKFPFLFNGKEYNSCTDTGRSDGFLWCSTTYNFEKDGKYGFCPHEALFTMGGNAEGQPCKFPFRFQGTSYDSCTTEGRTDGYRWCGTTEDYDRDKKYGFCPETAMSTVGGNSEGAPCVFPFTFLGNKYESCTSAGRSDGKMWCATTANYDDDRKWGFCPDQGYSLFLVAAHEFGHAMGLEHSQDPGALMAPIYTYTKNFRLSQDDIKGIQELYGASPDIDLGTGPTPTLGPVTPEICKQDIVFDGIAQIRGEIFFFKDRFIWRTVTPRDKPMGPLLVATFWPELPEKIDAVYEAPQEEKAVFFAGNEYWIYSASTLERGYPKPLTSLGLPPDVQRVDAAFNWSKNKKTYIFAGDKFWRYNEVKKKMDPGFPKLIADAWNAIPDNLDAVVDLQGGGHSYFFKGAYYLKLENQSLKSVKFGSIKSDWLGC
Pro061, sequence (chain, as listed by the source): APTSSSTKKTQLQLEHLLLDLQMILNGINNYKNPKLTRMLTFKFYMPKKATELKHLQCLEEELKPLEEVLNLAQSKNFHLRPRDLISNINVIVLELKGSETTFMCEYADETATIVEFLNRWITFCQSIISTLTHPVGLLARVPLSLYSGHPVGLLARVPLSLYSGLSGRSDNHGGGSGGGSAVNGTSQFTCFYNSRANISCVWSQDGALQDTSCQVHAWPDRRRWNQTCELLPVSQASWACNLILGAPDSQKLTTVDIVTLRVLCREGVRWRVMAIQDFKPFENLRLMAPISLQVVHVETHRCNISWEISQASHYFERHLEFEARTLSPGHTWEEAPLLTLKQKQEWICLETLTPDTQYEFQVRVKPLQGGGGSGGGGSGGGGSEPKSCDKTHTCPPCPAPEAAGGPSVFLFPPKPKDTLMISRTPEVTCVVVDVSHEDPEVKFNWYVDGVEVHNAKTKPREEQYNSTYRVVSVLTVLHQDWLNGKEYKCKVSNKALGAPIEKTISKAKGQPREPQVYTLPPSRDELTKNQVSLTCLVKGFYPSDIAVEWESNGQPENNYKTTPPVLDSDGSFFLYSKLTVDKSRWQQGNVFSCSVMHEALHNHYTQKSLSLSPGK
Pro054, sequence (chain, as listed by the source): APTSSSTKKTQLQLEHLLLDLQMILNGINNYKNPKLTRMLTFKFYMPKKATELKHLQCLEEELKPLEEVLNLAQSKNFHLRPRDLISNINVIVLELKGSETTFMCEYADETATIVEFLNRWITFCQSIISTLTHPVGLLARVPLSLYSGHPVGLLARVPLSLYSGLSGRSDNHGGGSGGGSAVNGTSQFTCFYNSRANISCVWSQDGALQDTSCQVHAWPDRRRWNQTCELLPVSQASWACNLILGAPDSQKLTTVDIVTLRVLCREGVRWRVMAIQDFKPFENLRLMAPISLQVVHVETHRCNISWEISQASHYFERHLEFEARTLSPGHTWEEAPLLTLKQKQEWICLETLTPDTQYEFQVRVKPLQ
Pro064, sequence (chain, as listed by the source): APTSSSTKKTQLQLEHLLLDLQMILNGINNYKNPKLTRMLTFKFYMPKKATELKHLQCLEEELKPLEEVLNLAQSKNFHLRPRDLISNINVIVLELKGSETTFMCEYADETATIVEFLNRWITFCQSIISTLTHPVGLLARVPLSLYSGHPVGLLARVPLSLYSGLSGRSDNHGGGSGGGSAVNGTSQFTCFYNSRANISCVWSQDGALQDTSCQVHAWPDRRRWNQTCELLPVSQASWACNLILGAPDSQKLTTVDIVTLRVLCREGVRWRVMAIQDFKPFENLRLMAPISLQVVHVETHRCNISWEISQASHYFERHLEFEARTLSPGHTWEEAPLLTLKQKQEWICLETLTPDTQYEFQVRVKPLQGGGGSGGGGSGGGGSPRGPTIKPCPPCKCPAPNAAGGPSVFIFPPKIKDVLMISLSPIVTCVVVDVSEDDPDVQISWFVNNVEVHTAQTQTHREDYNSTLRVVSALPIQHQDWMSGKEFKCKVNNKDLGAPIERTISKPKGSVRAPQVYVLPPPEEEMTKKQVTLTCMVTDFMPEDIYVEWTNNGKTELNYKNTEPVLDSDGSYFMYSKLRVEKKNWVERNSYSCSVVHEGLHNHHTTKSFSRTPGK

In the case of MMP-2 protease, the “Percentage of cleaved protein determined using WB after incubation with activated MMP-2 protease” value (“Percentage of cleaved protein determined” below) (Pro055) is reported as “Pro054, Pro055, Pro061, and Pro064 were sensitive to MMP-2 digestion and protease-dependent removal of masking and half-life extension domains”, the “Percentage of cleaved protein determined” value (Pro054) is reported as “Pro054, Pro055, Pro061, and Pro064 were sensitive to MMP-2 digestion and protease-dependent removal of masking and half-life extension domains” and the “Fraction of cleaved Pro101 determined by WB” value (Pro101) is reported as “effective linker cleavage in Pro101”. The “Percentage of cleaved protein determined” value (Pro064) was “Pro054, Pro055, Pro061, and Pro064 were sensitive to MMP-2 digestion and protease-dependent removal of masking and half-life extension domains” and the “Percentage of cleaved protein determined” value (Pro061) was “Pro054, Pro055, Pro061, and Pro064 were sensitive to MMP-2 digestion and protease-dependent removal of masking and half-life extension domains”.
